Patent US20220380463A1 (Adimab, published 2022)
Changes are numbered by the printed parent chain.

B1: SAD10319_P01_E02 (ADI-57304) (antibody, V domains shown)
VH: QVQLVQSGAEVKKPGASVKVSCKASGYTFTSDFMHWVRQAPGQRLEWMGWINPATGATKYSQKFQGRVTITRDTSASTAYMELSSLRSEDTAVYYCARDAYGHYFYDHWGQGTLVTVSS
VL: DIVMTQSPDSLAVSLGERATINCKSSQSLLNARTGKNYLAWYQQKPGQPPKLLIYWASTRESGVPDRFSGSGSGTDFTLTISSLQAEDVAVYYCKQSYSRRTFGGGTKVEIK
notes: IgG; also called Ab240
B2: SAD10319_P02_H06 (ADI-48633) (antibody, V domains shown)
VH: B1 VH with S31A, D32Y, F33V, W50S, N52D, P53A, A54G, A57N
VL: B1 VL
notes: IgG; also called Ab16
B3: SAD10319_P04_G10 (ADI-57334) (antibody, V domains shown)
VH: B1 VH with S31D, D32Y, F33Y, K59A, Y104H, H108V
VL: B1 VL
notes: IgG; also called Ab32
B4: SAD10319_P03_A08 (ADI-48636) (antibody, V domains shown)
VH: B1 VH with S31D, D32Y, F33D, N52D, P53A, A54G, A57L, A100H, H108V
VL: B1 VL
notes: IgG; also called Ab230
B5: SAD10319_P02_G06 (ADI-48632) (antibody, V domains shown)
VH: B1 VH with D32Y, F33A, A54D, K59V, G102H, H108V
VL: B1 VL
notes: IgG; also called Ab15
B6: SAD10319_P03_E08 (ADI-48637) (antibody, V domains shown)
VH: QVQLVQSGAEVKKPGASVKVSCKASGYTFNDYAMHWVRQAPGQRLEWMGYINGTGATVYSQKFQGRVTITRDTSASTAYMELSSLRSEDTAVYYCARDAYHHYFYDVWSQGTLVTVSS
VL: B1 VL
notes: IgG; also called Ab21
B7: SAD10319_P02_F04 (ADI-57312) (antibody, V domains shown)
VH: B1 VH with T30D, D32Y, F33T, W50Y, A54D, K59Y, G102H, H108V
VL: B1 VL
notes: IgG; also called Ab253
B8: SAD10319_P02_F06 (ADI-57324) (antibody, V domains shown)
VH: B1 VH with T30L, D32Y, F33A, W47R, A54S, K59D, H108V
VL: B1 VL
notes: IgG; also called Ab13
B9: SAD10319_P02_E06 (ADI-57323) (antibody, V domains shown)
VH: B1 VH with T30A, S31D, D32Y, F33A, E46A, A54H, K59F, H103R
VL: B1 VL
notes: IgG; also called Ab12
B10: SAD10319_P02_A05 (ADI-48629) (antibody, V domains shown)
VH: B1 VH with T30D, D32Y, F33A, A54N, K59T, A100H, H108V
VL: B1 VL
notes: IgG; also called Ab255
B11: SAD10319_P03_E09 (ADI-48640) (antibody, V domains shown)
VH: B1 VH with T30L, D32Y, F33D, N52D, P53A, A54G, K59T, G102H, H108V
VL: B1 VL
notes: IgG; also called Ab26
B12: SAD10320_P01_A03 (ADI-57353) (antibody, V domains shown)
VH: QVQLVQSGAEVKKPGASVKVSCKASGFNIKDYYMHWVRQAPGQRLEWMGWIDLENANTIYDAKFQGRVTITRDTSASTAYMELSSLRSEDTAVYYCARDHRGRYFYDVWGQGTLVTVSS
VL: B1 VL with Y98S, S99H
notes: IgG; also called Ab60
B13: SAD10319_P02_D06 (ADI-48631) (antibody, V domains shown)
VH: B1 VH with S31D, D32Y, F33A, P53A, A54G, K59I, G102H, H108V
VL: B1 VL
notes: IgG; also called Ab11
B14: SAD10319_P01_F03 (ADI-48627) (antibody, V domains shown)
VH: B1 VH with T30E, D32Y, F33D, P53A, A54G, K59V, G102H, H108V
VL: B1 VL
notes: IgG; also called Ab246
B15: SAD10319_P02_H06 (ADI-48633) (antibody, V domains shown)
VH: B1 VH with S31A, D32Y, F33V, W50S, N52D, P53A, A54G, A57N
VL: B1 VL
notes: IgG; also called Ab16
B16: SAD10319_P04_G11 (ADI-48641) (antibody, V domains shown)
VH: QVQLVQSGAEVKKPGASVKVYCKASGYTFTTYEMHWVRQAPGQRLEWMGSINAGDANTKYSQKFQGRVTITRDTSASTAYMELSSLRSEDTAVYYCARDAYHHYFYDVWGQGTLVTVSS
VL: B1 VL
notes: IgG; also called Ab39
B17: SAD10319_P04_B10 (ADI-57332) (antibody, V domains shown)
VH: B1 VH with D32T, W50F, N52D, P53A, A54G
VL: B1 VL
notes: IgG; also called Ab30
B18: SAD10319_P03_C07 (ADI-48634) (antibody, V domains shown)
VH: B1 VH with T30E, D32Y, F33D, N52D, P53A, A54G, K59T, G102H, H108V
VL: B1 VL
notes: IgG; also called Ab17
B19: SAD10319_P02_E04 (ADI-57311) (antibody, V domains shown)
VH: QVQLVQSGAEVKKPGASVKVSCKASGYTFESYYMHWVRQAPGQRLERMGSIVAGTGATKYSQKFQGRVTITRDTSASTAYMELSSLRSEDTAVYYCARDHYGRYFYDVWGQGTPVTVSS
VL: B1 VL
notes: IgG; also called Ab252
B20: SAD10319_P03_E07 (ADI-48635) (antibody, V domains shown)
VH: B19 VH with Y33D, R47W, S50W, V52D, K59T, H100A, G102H, R103H, P114L
VL: B1 VL
notes: IgG; also called Ab17
B21: SAD10320_P01_E02 (ADI-57349) (antibody, V domains shown)
VH: B12 VH with E46A, H100A, R101Y, Y104H
VL: B1 VL
notes: IgG; also called Ab55
B22: SAD10319_P01_C03 (ADI-48626) (antibody, V domains shown)
VH: B1 VH with S31D, D32Y, F33D, N52D, A54Y, H108V
VL: B1 VL
notes: IgG; also called Ab244
B23: SAD10319_P02_C06 (ADI-57322) (antibody, V domains shown)
VH: B1 VH with D32Y, F33A, A54V, K59V, H108V
VL: B1 VL
notes: IgG; also called Ab10
B24: SAD10319_P02_E05 (ADI-48630) (antibody, V domains shown)
VH: B1 VH with T30D, D32Y, F33I, N52D, P53A, A54G, K59V
VL: B1 VL
notes: IgG; also called Ab4
B25: SAD10319_P02_A06 (ADI-57320) (antibody, V domains shown)
VH: B19 VH with E30D, S31A, Y33A, R47W, S50W, V52D, R103H, P114L
VL: B1 VL
notes: IgG; also called Ab8
B26: SAD10319_P03_G08 (ADI-48638) (antibody, V domains shown)
VH: B1 VH with T30S, D32Y, F33D, N52D, P53A, A54G, A57F
VL: B1 VL
notes: IgG; also called Ab22
B27: SAD10319_P03_B09 (ADI-48639) (antibody, V domains shown)
VH: B1 VH with S31E, D32Y, F33D, N52D, P53A, A54G, K59V, H103R
VL: B1 VL
notes: IgG; also called Ab24
B28: SAD10319_P04_E12 (ADI-48642) (antibody, V domains shown)
VH: B19 VH with E30T, Y33P, R47W, S50W, V52D, A57L, K59T, G102H, V108M, P114L
VL: B1 VL
notes: IgG; also called Ab43

Columns and labels:
[1] = target: T1, Cynomolgus CD3εδ Fc heterodimer (Cy CD3ε Fc / CD3δ Fc-HIS) (cynomolgus, UniProt Q95LI8 22-100); assay: BLI (Octet), IgG on AHC sensor, pH 6.0
T1 chain 1: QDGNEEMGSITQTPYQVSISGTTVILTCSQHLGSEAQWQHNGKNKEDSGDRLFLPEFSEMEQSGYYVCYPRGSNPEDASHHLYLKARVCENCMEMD
T1 chain 2: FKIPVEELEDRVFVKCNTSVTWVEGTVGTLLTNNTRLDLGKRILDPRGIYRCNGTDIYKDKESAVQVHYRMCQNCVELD

[2] = target: T1, Cynomolgus CD3εδ Fc heterodimer (Cy …); assay: BLI (Octet), IgG on AHC sensor, pH 7.4
[3] = target: T2, human CD3 on CD3+ Jurkat cells (human, UniProt P07766 23-207); assay: flow cytometry, 100 nM IgG on CD3+ Jurkat cells, pH 6.0
T2 construct: whole, on cells; Native CD3 complex on cells; the other CD3 chains are not specified for this assay; also called Human CD3+ Jurkat
How it was run: (§1)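 Jurkat cells incubated 20 min on ice with 100 nM yeast-produced IgG in PBS + 0.1% BSA at pH 6.0 or pH 7.4, with all washes and staining at the same pH. Bound antibody detected with anti-human IgG-RPE, dead cells excluded by propidium iodide; MFI measured by flow cytometry.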

[4] = target: T2, human CD3 on CD3+ Jurkat cells; assay: flow cytometry, 100 nM IgG on CD3+ Jurkat cells, pH 7.4
How it was run: as §1

[5] = target: T2, human CD3 on CD3+ Jurkat cells; assay: flow cytometry on CD3+ Jurkat cells, ratio of MFI at pH 6.0 to pH 7.4
How it was run: as §1

T2 sequence (P07766 23-207): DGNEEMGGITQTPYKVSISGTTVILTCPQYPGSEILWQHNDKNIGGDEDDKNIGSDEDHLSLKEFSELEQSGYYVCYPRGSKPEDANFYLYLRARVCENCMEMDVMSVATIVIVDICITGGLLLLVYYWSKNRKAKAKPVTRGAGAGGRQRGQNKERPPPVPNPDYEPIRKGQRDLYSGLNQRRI

| Binder | koff [1] | Kd [2] | koff [2] | kon [2] | MFI pH 6.0 [3] | MFI pH 7.4 [4] | MFI pH 6.0/MFI pH 7.4 [5] |
| --- | --- | --- | --- | --- | --- | --- | --- |
| B1 | 0.0248 s⁻¹ | 145 nM | 0.0355 s⁻¹ | 245000 M⁻¹ s⁻¹ | – | – | – |
| B2 | – | – | – | – | 2790 MFI | 1450 MFI | 1.9 |
| B3 | 0.015 s⁻¹ | 62.6 nM | 0.0182 s⁻¹ | 291000 M⁻¹ s⁻¹ | – | – | – |
| B4 | – | – | – | – | 897 MFI | 35 MFI | 25.9 |
| B5 | – | – | – | – | 1620 MFI | 107 MFI | 15.1 |
| B6 | – | – | – | – | 244 MFI | 73 MFI | 3.3 |
| B7 | 0.0317 s⁻¹ | 117 nM | 0.0301 s⁻¹ | 257000 M⁻¹ s⁻¹ | – | – | – |
| B8 | 0.0122 s⁻¹ | 134 nM | 0.0331 s⁻¹ | 247000 M⁻¹ s⁻¹ | – | – | – |
| B9 | 0.00251 s⁻¹ | 60.6 nM | 0.0267 s⁻¹ | 440000 M⁻¹ s⁻¹ | – | – | – |
| B10 | – | – | – | – | 1780 MFI | 499 MFI | 3.6 |
| B11 | – | – | – | – | 772 MFI | 56 MFI | 13.8 |
| B12 | 0.0271 s⁻¹ | 78.4 nM | 0.0174 s⁻¹ | 222000 M⁻¹ s⁻¹ | – | – | – |
| B13 | – | – | – | – | 3100 MFI | 232 MFI | 13.4 |
| B14 | – | – | – | – | 335 MFI | 45 MFI | 7.4 |
| B15 | 0.0188 s⁻¹ | 78 nM | 0.0171 s⁻¹ | 220000 M⁻¹ s⁻¹ | – | – | – |
| B16 | – | – | – | – | 59 MFI | 52 MFI | 1.1 |
| B17 | 0.0127 s⁻¹ | 58.8 nM | 0.0199 s⁻¹ | 338000 M⁻¹ s⁻¹ | – | – | – |
| B18 | – | – | – | – | 651 MFI | 44 MFI | 14.7 |
| B19 | 0.0215 s⁻¹ | 64.1 nM | 0.0208 s⁻¹ | 324000 M⁻¹ s⁻¹ | – | – | – |
| B20 | – | – | – | – | 623 MFI | 54 MFI | 11.6 |
| B21 | 0.00585 s⁻¹ | 68.6 nM | 0.0208 s⁻¹ | 304000 M⁻¹ s⁻¹ | – | – | – |
| B22 | – | – | – | – | 3160 MFI | 369 MFI | 8.6 |
| B23 | 0.023 s⁻¹ | 51.3 nM | 0.0255 s⁻¹ | 496000 M⁻¹ s⁻¹ | – | – | – |
| B24 | – | – | – | – | 5540 MFI | 5060 MFI | 1.1 |
| B25 | 0.0327 s⁻¹ | 30.2 nM | 0.0115 s⁻¹ | 383000 M⁻¹ s⁻¹ | – | – | – |
| B26 | – | – | – | – | 2000 MFI | 84 MFI | 23.8 |
| B27 | – | – | – | – | 897 MFI | 55 MFI | 16.5 |
| B28 | – | – | – | – | 332 MFI | 55 MFI | 6.1 |
